Here are results for one substance from patent publication US20050226885A1.

“And” between values parts separate entries of the source, which are not always exact repeats. Equal entries are not always repeated.

The target of the experiment is C215 antigen (human GA-733 antigen recognized by the C215 mAb) (human) (UniProt P16422). Put plainly: FACS on Colo205 cells.
UniProt P16422, sequence (P16422 24-314): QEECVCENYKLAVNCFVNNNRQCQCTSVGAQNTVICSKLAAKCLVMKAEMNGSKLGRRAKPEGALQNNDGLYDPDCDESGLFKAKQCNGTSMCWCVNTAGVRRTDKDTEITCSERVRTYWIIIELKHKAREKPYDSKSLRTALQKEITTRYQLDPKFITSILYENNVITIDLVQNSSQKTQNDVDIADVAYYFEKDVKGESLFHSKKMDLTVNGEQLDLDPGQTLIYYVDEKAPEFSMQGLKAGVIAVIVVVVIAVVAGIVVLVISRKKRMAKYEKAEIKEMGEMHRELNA

As for “CD80-C215Fab (from UniProt P33681 35-242)”, the fold lower binding than that of C215Fab-SEA was 50 fold lower and 100 fold lower; the fold reduction of binding compared to C215Fab-SEA amounted to 100 fold reduced.
